Data from US20040241754A1, “Modulating neuronal plasticity” (The Salk Institute for Biological Studies, priority 2003, published 2004).
Entries after “also recorded” stand apart in the source; their conditions may differ. Ends that are not written are not given here.

Columns and labels:
[1] = test system: mossy fiber synapses of hippocampal CA3 pyramidal neurons; experiment: Forskolin-mediated potentiation of mossy fiber EPSCs; type: cell-based, mice; conditions: for forskolin potentiation of mossy fiber EPSCs after pre-application of Fc fusion protein: Fc fusion protein bath applied before forskolin; for effect on forskolin enhancement / mossy fiber transmission: bath application
[2] = test system: mossy fiber synapses of hippocampal CA3 pyramidal neurons; experiment: Mossy fiber LTP, whole-cell patch clamp in hippocampal slices; type: cell-based, mice; conditions: for LTP (potentiation of EPSCs after tetanic stimulation): bath application 5 μg/ml
Protocol: The role of the GluR2 subunit in LTP at mossy fiber terminals was evaluated in whole cell patch clamp experiments using hippocampal CA3 pyramidal neurons. Briefly, transverse hippocampal slices (350 μm) were made from P12-18 mice (strain 129SvEv) as previously described (Contractor et al., Neuron 29, 209-16. (2001)). Slices were transferred to a recording chamber, and whole-cell patch clamp recordings made from visually identified pyramidal cells in the CA3 region of the hippocampus. The recording electrode (i.e., patch electrode) is filled with an “internal” solution described below. A seal between the glass of the electrode and the membrane of the cell is made. The seal is then “broken through” by pushing the electrode through the membrane to gain low resistance access to the cell interior and enable voltage clamping of the cell membrane. This also allows dialysis of the cell with test reagents such as peptides and antibodies. A stimulating electrode is attached to a current source and allows current to stimulate action potentials while a reference electrode is placed in the recording bath. The composition of the internal solution was: 95 mM CsF, 25 mM CsCl, 10 mM Cs-HEPES, 10 mM Cs-EGTA, 2 mM NaCl, 2 mM Mg-ATP, 10 mM QX-314, 5 mM TEA-Cl, 5 mM 4-AP, pH adjusted to 7.3 with CsOH.
Peptides were added directly to the internal solution on the day of the experiment from frozen stocks in protease inhibitors made up in phosphate buffered saline (PBS). To avoid leakage of peptides or antibodies into the extracellular space, pipette tips were filled with normal internal solution and then the pipette was backfilled with peptide/antibody containing internal fluid. The final concentration of peptides was 50 μM in all experiments. The final concentration of protease inhibitors were: bestatin 2 μg/ml, leupeptin 25 ng/ml, pepstatin 35 ng/ml, aprotinin 100 ng/ml.
In control experiments where peptides were not included, internal solutions were made up in exactly the same way with protease inhibitors in PBS but lacking any added peptide. Antibodies were made up in PBS stock and added directly to the internal solution at a final concentration of 20 μg/ml. The pH and osmolarity of all internal solutions were checked before use. Series resistances (Rs) were generally <10M and were continuously monitored throughout the duration of the experiment. […] Experiments using mutant mice were performed with heterozygous breedings blind to the genotype of the animal.
Mossy fiber EPSCs were evoked with a monopolar glass electrode positioned in the stratum lucidum. EPSCs were evaluated using a 40 ms interval between recordings. All recordings were made in the continuous presence of bicuculline (10 μM), picrotoxin (50 μM) and the NMDA receptor antagonist D-AP5 [D(-)-2-Amino-5-phosphonopentanoic acid; 50 μM]. The group II mGluR agonist, LCCG-1 (10 μM), which selectively depresses mossy fiber transmission, was applied at the end of each experiment. LTP was induced by tetanic stimulation comprising three 1 s stimulations (100 Hz) with a 10 s interval. Data are presented as mean±SEM. Parameters were compared using the Student's unpaired t-test where not specified, and the K-S test, p<0.05 was considered significant.
Cumulative probability is determined by ranking the EPSC data set from the highest to the lowest value from 20 to 30 minutes post tetanization. Each point is graphed with its corresponding percentile. […] The lowest LTP value was about 40% signified by the lowest point on the 1 st graph (open circles) and the largest LTP was about 160%.

[3] = biological target: presynaptic ephrin-B ligands; experiment: cell-based or functional assay
[4] = peptide 50 μM in patch electrode, 40 ms interval
[5] = Fc fusion protein, bath application

C=C[C@@]1(C)CC(=O)[C@]2(O)[C@@]3(C)[C@@H](O)CCC(C)(C)[C@@H]3[C@H](O)[C@H](OC(C)=O)[C@@]2(C)O1 [forskolin, reference compound]
potentiation of mossy fiber EPSCs by forskolin ([1]; bath application of forskolin alone, 20-30 minutes after application): 275±38%

N[C@H](C(=O)O)[C@H]1C[C@@H]1C(=O)O [LCCG-1, (2S,1′S,2′S)-2-(carboxycyclopropyl)glycine, reference compound]
effect on mossy fiber EPSC ([2]; applied at the end of each experiment, 10 μM): caused inhibition of the EPSC

LHLHGTGIQV [EphA7 peptide, reference compound]
LTP (potentiation of the EPSC after tetanic stimulation) ([2]; peptide 50 μM in patch electrode (postsynaptic), 25 to 30 minutes after tetanic stimulation): 250±46% | LTP PPR (paired pulse ratio after LTP induction) [2, 4]: 2.3±0.22 | control PPR (paired pulse ratio before LTP induction) [2, 4]: 2.8±0.15 | PTP (post-tetanic potentiation) ([2]; peptide 50 μM in patch electrode, immediately following tetanic stimulation): 990±180% | paired pulse ratio after LTP induction versus pretetanic ([2]; peptide in patch electrode): significantly reduced relative to pretetanic recording

B1: ephrin-B1-Fc: mouse ephrin (Met 1 to Ser 229), a linker, Human gamma heavy chain (Pro 100 to Lys 330) and (His)5 (protein)
chain (part 1 of 2): ATPLAKNLEPVSWSSLNPKFLSGKGLVIYPKIGDKLDIICPRAEAGRPYEYYKLYLVRPEQAAACSTVLDPNVLVTCNKPHQEIRFTIKFQEFSPNYMGLEFKKYHDYYITSTSNGSLEGLENREGGVCRTRTMKIVMKVGQDPNAVTPEQLTTSRPSKESDNTVKTATQAPGRGSQGDSDGKHETVNQEEKSGPGAGGGGSGDSIEGRMD
chain (part 2 of 2): HHHHH
modifications: left off: a dimerising Fc or GST
PTP (post-tetanic potentiation) [2, 5]: 430±100% | effect on LTP induction [2, 5]: significantly impair LTP induction | effect on basal synaptic transmission / baseline EPSC amplitudes [2, 5]: did not alter the baseline EPSC amplitudes; also recorded: does not affect basal transmission | effect on post-tetanic potentiation / short-term plasticity [2, 5]: significantly impaired | paired pulse ratio, effect [2, 5]: no significant difference in PPR | LTP (potentiation of EPSCs after tetanic stimulation) ([2]; Fc fusion protein): 139±12% | forskolin potentiation of mossy fiber EPSCs after pre-application of Fc fusion protein [1]: 219±15% | effect on forskolin enhancement / mossy fiber transmission [1]: does not affect Forskolin enhancement

B2: EphB2-Fc fusion protein (Fc fusion, mouse, not shown: a dimerising Fc or GST)
chain (part 1 of 2): VEETLMDSTTATAELGWMVHPPSGWEEVSGYDENMNTIRTYQVCNVFESSQNNWLRTKFIRRRGAHRIHVEMKFSVRDCSSIPSVPGSCKETFNLYYYEADFDLATKTFPNWMENPWVKVDTIAADESFSQVDLGGRVMKINTEVRSFGPVSRNGFYLAFQDYGGCMSLIAVRVFYRKCPRIIQNGAIFQETLSGAESTSLVAARGSCIANAEEVDVPIKLYCNGDGEWLVPIGRCMCKAGFEAVENGTVCRGCPSGTFKANQGDEACTHCPINSRTTSEGATNCVCRNGYYRADLDPLDMPCTTIPSAPQAVISSVNETSLMLEWTPPRDSGGREDLVYNIICKSCGSGRGACTRCGDNVQYAPRQLGLTEPRIYISDLLAHTQYTFEIQAVNGVTDQSPFSPQFASVNITTNQAAPSAVSIMHQVSRTVDSITLSWSQPDQPNGVILDYELQYYEKELSEYNATAIKSPTNTVTVQGLKAGAIYVFQVRARTVAGYGRYSGKMYFQTMTEAEYQTSIKEKLPLIVGDIEGRMD
chain (part 2 of 2): HHHHH
LTP after tetanic stimulation in the presence of EphB2-Fc [3]: 134% | basal EPSC amplitude during bath application (5 µg/ml) [3]: 145% | forskolin potentiation of mossy fiber EPSCs 30 mins after washout, after EphB2-Fc [3]: 118% | post-tetanic potentiation [3]: 420% | potentiation of baseline EPSC amplitudes on bath application [3]: 148%

B3: EphB2-Fc: mouse EphB2 (Met 1 to Lys 546), a linker, Human gamma heavy chain (Pro 100 to Lys 330) and (His)5 (protein)
chain (part 1 of 2): B2 chain (part 1 of 2)
chain (part 2 of 2): HHHHH
modifications: left off: a dimerising Fc or GST
LTP PPR [2, 5]: 2.2 ±0.2 | PTP (post-tetanic potentiation) [2, 5]: 420±85% | control PPR [2, 5]: 2.5±0.3 | effect on LTP induction [2, 5]: inhibits subsequent tetanus induced LTP | paired pulse ratio, effect [2, 5]: small, non-significant reduction in the baseline PPR; also recorded: not significantly reduced | LTP (potentiation of EPSCs after tetanic stimulation) ([2]; Fc fusion protein): 134±13% | increase in the basal EPSC amplitude ([2]; bath application 5 μg/ml for twenty minutes during baseline recording): 145±13% | forskolin potentiation of mossy fiber EPSCs after pre-application of Fc fusion protein [1]: 118±10% | effect on forskolin enhancement / mossy fiber transmission [1]: inhibits subsequent forskolin effects | potentiation of baseline amplitudes ([1]; bath applied before forskolin): 148±19%
